Assay results from the supplement of paper PMC9170038.

Test system: MS2 coat protein
Assay: apparent KD of MS2 coat protein; designed switch direction (-1 OFF switch, 1 ON switch): -1; higher = weaker reporter binding
How it was run: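 On Illumina chips, designed RNA switches with common flanks were made by stalled E. coli RNA polymerase. Titrations with SNAP-549-labelled MS2 coat protein, doubling from 0.7 or 1.5 nM to 3 µM, were done with no input, with 200 uM small-molecule ligand, or with an oligonucleotide input. Apparent KD is the median per design over clusters, from curve fits of normalised cluster fluorescence.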

[1] = input ligand: microRNA oligo, concentration not stated
[2] = Eterna round: R95, input ligand: FMN 200 uM
[3] = Eterna round: R95, input ligand: microRNA oligo, concentration not stated
[4] = Eterna round: R95, input ligand: none

Sequence | apparent KD of MS2 coat protein [1] | apparent KD of MS2 coat protein [2] | apparent KD of MS2 coat protein [3] | apparent KD of MS2 coat protein [4] | apparent KD of MS2 coat protein (input ligand: FMN 200 uM) | apparent KD of MS2 coat protein (input ligand: none)
UACAUGAGGAUCACCCAUGUUUUGUCGUGUAUGGUAUUUAUCUAGGAUAUCAAUUUGUAUAUUUAUGAGAAGGAGAAUAUUAAU [JMF's solution 67] (Eterna round: R96, puzzle: Exclusion NG 3) | 30.7 nM | – | – | – | – | –
GGUUGGCGAGGAUAUACAUGAGGAUCACCCAUGUGAGAAUUAAAAGUGAGGAAGAAAAGUAGAAGGCGCUGACG [Mat - Exclusion 3 - Mod of Salish D4] (puzzle: Exclusion 3) | – | 304 nM | 36.1 nM | 384 nM | – | –
GGAUAUAACGUAGGAUAUGAGCGCAACUGACGAUCAGAAGGACGACAUGAGGAUCACCCAUGUGAUCUAUCAAUAUUAUACAUG [Prohibition 95 - Jieux - Exclusion NG 1] (Eterna round: R96, puzzle: Exclusion NG 1) | 495 nM | – | – | – | 590 nM | 977 nM
AGGAAACAUGAGGAUCACCCAUGUGAGGAUAUUUGAAAGAAAAGAAAAGAAAGAAGAAGAAGAAGGCACAAGAA [Merneith] (Eterna round: R96, puzzle: Exclusion 1) | 23.8 nM | – | – | – | – | –
CGGGCCGGCCUUCCGGCCGGCCCGACAUGAGGAUCACCCAUGUAGGAUAUCCCGGCUGCCGGCCGGGAGAAGGACAUGCGCCCG [-45.9, -45.9 kcal, 17% A] (Eterna round: R96, puzzle: Exclusion NG 3) | 65.3 nM | – | – | – | 104 nM | 49.3 nM
UUGGGCAGAGGAUAUCGUACGUAGCACAUGAGGAUCACCCAUGUGGCCAGCCGCUAAACAUGAGAAGGUUGUGUAC [Eternabot (Original) Solution 8] (Eterna round: R97, puzzle: Exclusion 5) | – | – | – | – | 17.6 nM | 14.3 nM
GAUCGACAUGAGGAUCACCCAUGUCAGGAUAUCUACAUUGAAGCUUCGGCUUCAAUGUAGAGAAGGGACAUAAU [E1/13-B1] (Eterna round: R97, puzzle: Exclusion 1) | – | – | – | – | 38.6 nM | 39.7 nM
CUCGUGUGAGGAUAUCAACGUCAAGCGUGAGCGAGACGAGAUGAGAAGGUACAUGAGGAUCACCCAUGUGCUCA [Eternabot (Original) Solution 25] (Eterna round: R97, puzzle: Exclusion 4) | – | – | – | – | 83.1 nM | 20 nM
AUCUUUGCUCGUCAAAUUUACAUGAGGAUCACCCAUGUCUACCUGAGUGCGUCGGGACUGUACGUCAGCCGGUGGAA [Eternabot (L2) Solution 15] (Eterna round: R97, puzzle: Sensor, turn-off variant 1) | – | – | – | – | 23.3 nM | 25 nM
GGAAAGGUAGGAUAUACGAAAAAAAAGGGUAGAAAAAAAACACAUGAGGAUCACCCAUGUAGAAGGACCAAAAG [salish99_ex2_r3_036] (puzzle: Exclusion 2) | – | 44.8 nM | 36.1 nM | 33 nM | – | –
UUUUAACAUGAGGAUCACCCAUGUGAGGAUAUCGAAAUUUAUAUUAAUAUUAUUAUAACGAGAAGGCACAUUUU [JMF 39] (puzzle: Exclusion 1) | – | – | 62.2 nM | – | – | –
AUUUAAUUUAGCGAGAUCACAUGAGGAUCACCCAUGUAUAUAUAGGAUAUCAGCUCGUUUAGAGCUGAGAAGGAUAUAUACCGC [ExNG3/7-A2] (Eterna round: R96, puzzle: Exclusion NG 3) | 74 nM | – | – | – | – | –
GAUUAUGCGAGCUUUAGGGACAUGAGGAUCACCCAUGUUCGUCUUAUUGGUCUGAAUGCACUGACAUACCUAAAUCU [JMF 76] (puzzle: Sensor v3, turn-off variant 1) | – | 18.7 nM | 24.2 nM | 17.5 nM | – | –
CUUUAGUGAGGAUAUUAGUAGUAAUACAAUAGUAUUACUACUGAGAAGGCACAUGAGGAUCACCCAUGUUCCUC [Mat - Exclusion 4 - Mod of Omei - D79] (Eterna round: R96, puzzle: Exclusion 4) | 25 nM | – | – | – | 303 nM | 28.5 nM
AAGAAACAUGAGGAUCACCCAUGUGAGGAUAUGAUUAAGAAAAGAAAAGAAAGAAGAAUCAGAAGGCACAAAGG [salish99-ex1_r3_042] (puzzle: Exclusion 1) | – | 258 nM | 98.7 nM | 108 nM | – | –
GAUUACCUAACAAGUAAGCACAUGAGGAUCACCCAUGUGGAGGGUCAUGUCAUGCUCAAGAUGCUCGUCAUUUCUAG [Eternabot (L2) Solution 38] (Eterna round: R97, puzzle: Sensor, turn-off variant 1) | – | – | – | – | 180 nM | 193 nM
GGCGUCGUGUAGGAUAUGAAUUGAAAGGCUUCGUCAGAAGGGCACACAUGAGGAUCACCCAUGUGACAGCUGAG [Eternabot (L1) Solution 78] (Eterna round: R97, puzzle: Exclusion 6) | – | – | – | – | 20 nM | 19.9 nM
ACUGGAUGCAAGCAGGUCCACAUGAGGAUCACCCAUGUUCGUCGGCCAGCAUCGGCUUCUACCGCAAGCCGCGUGCA [Eternabot (L1) Solution 27] (Eterna round: R97, puzzle: Sensor, turn-off variant 1) | – | – | – | – | 15.9 nM | 18.8 nM
AAUCGGUGAGGAUAUCUAUUGCGGGAGGAAAUUCGCGAAACGGAGAAGGCACAUGAGGAUCACCCAUGUGAAUC [EX4 C.18] (Eterna round: R97, puzzle: Exclusion 4) | – | – | – | – | 25.7 nM | 18.8 nM
CUCCUCAUGGCGCCUAAACACAUGAGGAUCACCCAUGUACAGGCUUUUCGCCGUCUUAUAAUAAAACCGAGGAUGCG [Soislebice] (puzzle: Sensor v3, turn-off variant 1) | – | 45.6 nM | 300 nM | 47.8 nM | – | –
AGUAGUAGUAUCCGAUCUUACAUGAGGAUCACCCAUGUAGCUAGACGUGCACGCGAUGCUCGUCAGACUACCAGAUG [salish99_TOv1_r3_051] (puzzle: Sensor v3, turn-off variant 1) | – | 148 nM | 230 nM | 277 nM | – | –
UAUGUUGUUGUGAGGAUAUACUUUGUUUGACCGUAGUAGAAGGCACAUGAGGAUCACCCAUGUAGAUUUUUGGU [JR_BME4_Sub008] (puzzle: Brourd's mod of Exclusion 4) | – | – | 9.12 nM | – | – | –
GGUGGACAUGAGGAUCACCCAUGUGAGGAUAUCGGCUGGUACGUGUUGGCUGGCUUCUCGAGAAGGCACAUAGU [Exclusion 1 V65] (puzzle: Exclusion 1) | – | – | 45.9 nM | – | – | –
UCUGUUAUGCGAGGAUAUCGACCAUUCCUCUUAACAUGAGGAUCACCCAUGUGCUAAACCUACAACGAGAAGGCGCUCAUACUC [JR_ExcNG2_Sub068] (Eterna round: R96, puzzle: Exclusion NG 2) | 102 nM | – | – | – | 156 nM | 143 nM
GCACUGCGAGGAUAUACAUGAGGAUCACCCAUGUGUCGGCAGACAUGUUAUUUCUAAUGUAGAAGGCGCGUAAA [JR_Ex3_Sub002] (Eterna round: R97, puzzle: Exclusion 3) | – | – | – | – | 340 nM | 68.8 nM
UAGAGACAUGAGGAUCACCCAUGUGAGGAUAUAGAGGAAGAUUGCGAGAGGGAGAGGACUAGAAGGCACAGUGA [JR_Exclu1_Sub034] (puzzle: Exclusion 1) | – | 31.4 nM | 35.2 nM | 47.5 nM | – | –
